Data on 2 variants can be found in publication PMC3103433 (2011).

The chains are these.
B1: His-6-Munc18c [not stated] / Sx4 lacking the N-terminal 36 amino acids (N36Δ), GST fusion [not stated] (parent complex)
chain 1: MAPPVSERGLKSVVWRKIKTAVFDDCRKEGEWKIMLLDEFTTKLLSSCCKMTDLLEEGITVIENIYKNREPVRQMKALYFISPTPKSVDCFLRDFGSKSEKKYKAAYIYFTDFCPDSLFNKIKASCSKSIRRCKEINISFIPQESQVYTLDVPDAFYYCYSPDPSNASRKEVVMEAMAEQIVTVCATLDENPGVRYKSKPLDNASKLAQLVEKKLEDYYKIDEKGLIKGKTQSQLLIIDRGFDPVSTVLHELTFQAMAYDLLPIENDTYKYKTDGKEKEAVLEEDDDLWVRVRHRHIAVVLEEIPKLMKEISSTKKATEGKTSLSALTQLMKKMPHFRKQISKQVVHLNLAEDCMNKFKLNIEKLCKTEQDLALGTDAEGQRVKDSMLVLLPVLLNKNHDNCDKIRAVLLYIFGINGTTEENLDRLIHNVKIEDDSDMIRNWSHLGVPIVPPSQQAKPLRKDRSAEETFQLSRWTPFIKDIMEDAIDNRLDSKEWPYCSRCPAVWNGSGAVSARQKPRTNYLELDRKNGSRLIIFVIGGITYSEMRCAYEVSQAHKSCEVIIGSTHILTPRKLLDDIKMLNKSKDKVSFKDE
chain 2: PDDEFFQKVQTIRQTMAKLESKVRELEKQQVTILATPLPEESMKQGLQNLREEIKQLGREVRAQLKAIEPQKEEADENYNSVNTRMKKTQHGVLSQQFVELINKCNSMQSEYREKNVERIRRQLKITNAGMVSDEELEQMLDSGQSEVFVSNILKDTQVTRQALNEISARHSEIQQLERSIRELHEIFTFLATEVEMQGEMINRIEKNILSSADYVERGQEHVKIALENQKKARKKK
B2: His-6-Munc18c [not stated] / Sx4-GST, wild-type Syntaxin 4 cytosolic domain (residues 1-273) [not stated] (parent complex)
chain 1: B1 chain 1
chain 2: MRDRTHELRQGDNISDDEDEVRVALVVHSGAARLGSPDDEFFQKVQTIRQTMAKLESKVRELEKQQVTILATPLPEESMKQGLQNLREEIKQLGREVRAQLKAIEPQKEEADENYNSVNTRMKKTQHGVLSQQFVELINKCNSMQSEYREKNVERIRRQLKITNAGMVSDEELEQMLDSGQSEVFVSNILKDTQVTRQALNEISARHSEIQQLERSIRELHEIFTFLATEVEMQGEMINRIEKNILSSADYVERGQEHVKIALENQKKARKKK

The variants in the first experiment derive from B1. The experiment can be described thus: GST pull-down, anti-Munc18c immunoblot quantification; 1 μg GST fusion on glutathione-Sepharose, 1 μg Munc18c, binding buffer, overnight, 4°C; read off a plot.
For chain 2 L137A, chain 2 E138A, the screen value was ~13 % of wild-type Sx4.

The variants in a further experiment derive from B1. Briefly: GST pull-down, anti-Munc18c immunoblot quantification; 1 μg GST fusion on glutathione-Sepharose, 1 μg Munc18c, binding buffer, overnight, 4°C; n=3; read off a plot.
Take chain 2 L137A, chain 2 E138A: the screen value was ~18 % of wild-type Sx4.

A further experiment covers variants of B2. The experiment can be described thus: GST pull-down, anti-Munc18c immunoblot quantification; 1 μg GST fusion on glutathione-Sepharose, 1 μg Munc18c, binding buffer, overnight, 4°C; read off a plot.
Take chain 2 L173A, chain 2 E174A: the percent of parent was ~73 % of wild-type Sx4.

The next experiment covers variants of B2. The experiment can be described thus: GST pull-down, anti-Munc18c immunoblot quantification; 1 μg GST fusion on glutathione-Sepharose, 1 μg Munc18c, binding buffer, overnight, 4°C; n=3; read off a plot.
Regarding chain 2 L173A, chain 2 E174A, the percent of parent is ~89 % of wild-type Sx4.
